Among the data in PMC4206950 (Chemical science (Royal Society of Chemistry : 2010), 2014) are Km, kcat and kcat/Km values, retold here.

Assay in all cases: purified protein
In series [1] the test system is CC(=O)Oc1ccc([N+](=O)[O-])cc1. The format is biochemical, Hevea brasiliensis. The note with it: BES pH 7.2, 25 °C, about 7 vol% acetonitrile.
The test system of the next series is CC(=O)Oc1ccccc1. The note with it: […] BES pH 7.2, 5% MeCN.
Another series deals with CC(C)(O)C#N. Format: biochemical, Hevea brasiliensis. The conditions noted are these: pH 5 citrate buffer.
For a further series, the system named is N#CC(O)c1ccccc1. The format is biochemical, Hevea brasiliensis. The conditions noted are these: pH 5.0 citrate buffer, 25 °C, racemic substrate.
Substrate in series [2]: CC(=O)Oc1ccc([N+](=O)[O-])cc1
The format is biochemical, Pseudomonas fluorescens. The conditions noted are these: BES pH 7.2, 25 °C, about 7 vol% acetonitrile.

Substrate in series [3]: CC(=O)Oc1ccc([N+](=O)[O-])cc1
The format is biochemical, Nicotiana tabacum. The conditions noted are these: BES pH 7.2, 25 °C, about 7 vol% acetonitrile.

What is called Km is the substrate concentration at which the rate is half of its maximum. The term kcat denotes the number of substrate molecules converted per active site and unit of time at saturation. One may read the kcat/Km as the turnover number divided by the Michaelis constant. For HbHNL (Hevea brasiliensis; K236G/T11G), in series [1], the Michaelis-Menten constant (Km) was 0.15 ± 0.02 mM, the kcat came out at 0.00217 ± 6.67e-05 s⁻¹ and the kcat/Km came out at 14.3 M⁻¹ s⁻¹.
On to HbHNL (Hevea brasiliensis; T11G), for which, in series [1], the Km amounted to 0.20 ± 0.04 mM, the kcat came to 0.0015 ± 8.33e-05 s⁻¹ and the kcat/Km was found to be 7.5 M⁻¹ s⁻¹.
Consider HbHNL (Hevea brasiliensis; E79H), for which, in series [1], the Km was determined as 0.19 ± 0.04 mM, the kcat is 0.00133 ± 6.67e-05 s⁻¹ and the kcat/Km was determined as 6.83 M⁻¹ s⁻¹.
The corresponding values for HbHNL (Hevea brasiliensis; E79H/T11G) are 0.14 ± 0.02 mM, 0.00967 ± 0.000333 s⁻¹ and 69.3 M⁻¹ s⁻¹.
With “HbHNL (Hevea brasiliensis; E79H/K236G/T11G)”, the Km in the series with CC(=O)Oc1ccccc1 was found to be 2.8 ± 0.4 mM; in series [1], 0.16 ± 0.02 mM; in the series on CC(C)(O)C#N, 6.5 ± 1 mM; in the series with N#CC(O)c1ccccc1, 3.2 ± 0.9 mM. Further, the kcat came to 0.02 ± 0.00167 s⁻¹ in the series with CC(=O)Oc1ccccc1, 0.027 ± 0.000833 s⁻¹ in series [1], 0.0967 ± 0.00833 s⁻¹ in the series with CC(C)(O)C#N and 0.135 ± 0.0167 s⁻¹ in the series with N#CC(O)c1ccccc1. The kcat/Km worked out at 6.83 M⁻¹ s⁻¹ with CC(=O)Oc1ccccc1, 168 M⁻¹ s⁻¹ in series [1], 14.8 M⁻¹ s⁻¹ in the series with CC(C)(O)C#N and 41.7 M⁻¹ s⁻¹ in the series with N#CC(O)c1ccccc1.
With HbHNL (Hevea brasiliensis; K236M), in series [1], the Km was 0.58 ± 0.05 mM, the kcat worked out at 0.0123 ± 0.000333 s⁻¹ and the kcat/Km worked out at 21.2 M⁻¹ s⁻¹.

B1: PFE (Pseudomonas fluorescens) (protein)
chain: STFVAKDGTQIYFKDWGSGKPVLFSHGWLLDADMWEYQMEYLSSRGYRTIAFDRRGFGRSDQPWTGNDYDTFADDIAQLIEHLDLKEVTLVGFSMGGGDVARYIARHGSARVAGLVLLGAVTPLFGQKPDYPQGVPLDVFARFKTELLKDRAQFISDFNAPFYGINKGQVVSQGVQTQTLQIALLASLKATVDCVTAFAETDFRPDMAKIDVPTLVIHGDGDQIVPFETTGKVAAELIKGAELKVYKDAPHGFAVTHAQQLNEDLLAFLKR
Regarding B1, the Km in “purified protein [2]” worked out at 0.45 mM.

B2: SABP2 (Nicotiana tabacum) (protein)
chain: MKEGKHFVLVHGACHGGWSWYKLKPLLEAAGHKVTALDLAASGTDLRKIEELRTLYDYTLPLMELMESLSADEKVILVGHSLGGMNLGLAMEKYPQKIYAAVFLAAFMPDSVHNSSFVLEQYNERTPAENWLDTQFLPYGSPEEPLTSMFFGPKFLAHKLYQLCSPEDLALASSLVRPSSLFMEDLSKAKYFTDERFGSVKRVYIVCTEDKGIPEEFQRWQIDNIGVTEAIEIKGADHMAMLCEPQKLCASLLEIAHKYN
Consider B2, for which the Km in “purified protein [3]” was found to be 1.4 ± 0.1 mM.
